T1: human FcγRIIb extracellular domain with C-terminal His tag (human, UniProt P31994 43-217)
T1 sequence (looked up): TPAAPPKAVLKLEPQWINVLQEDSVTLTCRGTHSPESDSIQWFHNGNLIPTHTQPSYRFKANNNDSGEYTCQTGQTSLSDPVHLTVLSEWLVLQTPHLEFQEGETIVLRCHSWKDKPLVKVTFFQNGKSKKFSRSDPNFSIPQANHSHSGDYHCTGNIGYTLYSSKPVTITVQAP


Tests used:
[1] = biological target: T1, human FcγRIIb extracellular domain with …; assay: SPR
[2] = biological target: T1, human FcγRIIb extracellular domain with …; assay: SPR; remark: listed apart in the source

Row | KD (IIaR)/KD (IIb) [1] | KD (IIaH)/KD (IIb) [2] | Binder
1 | 18.5 | 658 | BP504 (antibody, human IgG1, kappa) heavy: QVQLQESGPGLVKPSETLSLTCAVSGHSISHDHAWSWVRQPPGEGLEWIGFISYSGITNYNPSLQGRVTISRDNSKNTLYLQMNSLRAEDTAVYYCARSLARTTAMDYWGEGTLVTVSSASTKGPSVFPLAPSSKSTSGGTAALGCLVKDYFPEPVTVSWNSGALTSGVHTFPAVLQSSGLYSLSSVVTVPSSSLGTQTYICNVNHKPSNTKVDKKVEPKSCDKTHTCPPCPAPDLLGDDSVFLFPPKPKDTLMISRTPEVTCVVIDVAEEDGPVKFNWYVDGVEVHNAKTKPREEQYNSTYRVVSVLTVLHQDWLNGKEYKCKVSNKALPAPIEKTISKAKGQPREPQVYTLPPSRDELTKNQVSLTCLVKGFYPSDIAVEWESNGQPENNYKTTPPVLDSDGSFFLYSKLTVDKSRWQQGNVFSCSVMHEALHNHYTQESLSLSP light: not shown
2 | 28.5 | 352 | IL6R-BP502/IL6R-L (antibody, human IgG1, kappa) heavy: QVQLQESGPGLVKPSETLSLTCAVSGHSISHDHAWSWVRQPPGEGLEWIGFISYSGITNYNPSLQGRVTISRDNSKNTLYLQMNSLRAEDTAVYYCARSLARTTAMDYWGEGTLVTVSSASTKGPSVFPLAPSSKSTSGGTAALGCLVKDYFPEPVTVSWNSGALTSGVHTFPAVLQSSGLYSLSSVVTVPSSSLGTQTYICNVNHKPSNTKVDKKVEPKSCDKTHTCPPCPAPDLLGDDSVFLFPPKPKDTLMISRTPEVTCVVIDVAEEDGEVKFNWYVDGVEVHNAKTKPREEQDNSTYRVVSVLTVLHQDWLNGKEYKCKVSNKGLPRPIEKTISKAKGQPREPQVYTLPPSRDELTKNQVSLTCLVKGFYPSDIAVEWESNGQPENNYKTTPPVLDSDGSFFLYSKLTVDKSRWQQGNVFSCSVMHEALHNHYTQESLSLSP light: not shown
3 | 20 | 466 | BP562 (antibody, human IgG1, kappa) heavy: QVQLQESGPGLVKPSETLSLTCAVSGHSISHDHAWSWVRQPPGEGLEWIGFISYSGITNYNPSLQGRVTISRDNSKNTLYLQMNSLRAEDTAVYYCARSLARTTAMDYWGEGTLVTVSSASTKGPSVFPLAPSSKSTSGGTAALGCLVKDYFPEPVTVSWNSGALTSGVHTFPAVLQSSGLYSLSSVVTVPSSSLGTQTYICNVNHKPSNTKVDKKVEPKSCDKTHTCPPCPAPELLGDDSVFLFPPKPKDTLMISRTPEVTCVVVDVSDEDGDVKFNWYVDGVEVHNAKTKPREEQDNSTYRVVSVLTVLHQDWLNGKEYKCKVSNKALPRPIEKTISKAKGQPREPQVYTLPPSRDELTKNQVSLTCLVKGFYPSDIAVEWESNGQPENNYKTTPPVLDSDGSFFLYSKLTVDKSRWQQGNVFSCSVMHEALHNHYTQESLSLSP light: not shown
4 | 29.1 | 525 | BP563 (antibody, human IgG1, kappa) heavy: QVQLQESGPGLVKPSETLSLTCAVSGHSISHDHAWSWVRQPPGEGLEWIGFISYSGITNYNPSLQGRVTISRDNSKNTLYLQMNSLRAEDTAVYYCARSLARTTAMDYWGEGTLVTVSSASTKGPSVFPLAPSSKSTSGGTAALGCLVKDYFPEPVTVSWNSGALTSGVHTFPAVLQSSGLYSLSSVVTVPSSSLGTQTYICNVNHKPSNTKVDKKVEPKSCDKTHTCPPCPAPDLLGDDSVFLFPPKPKDTLMISRTPEVTCVVVDVSEEDGDVKFNWYVDGVEVHNAKTKPREEQDNSTYRVVSVLTVLHQDWLNGKEYKCKVSNKALPRPIEKTISKAKGQPREPQVYTLPPSRDELTKNQVSLTCLVKGFYPSDIAVEWESNGQPENNYKTTPPVLDSDGSFFLYSKLTVDKSRWQQGNVFSCSVMHEALHNHYTQESLSLSP light: not shown
5 | 29.2 | 444 | BP509 (antibody, human IgG1, kappa) heavy: QVQLQESGPGLVKPSETLSLTCAVSGHSISHDHAWSWVRQPPGEGLEWIGFISYSGITNYNPSLQGRVTISRDNSKNTLYLQMNSLRAEDTAVYYCARSLARTTAMDYWGEGTLVTVSSASTKGPSVFPLAPSSKSTSGGTAALGCLVKDYFPEPVTVSWNSGALTSGVHTFPAVLQSSGLYSLSSVVTVPSSSLGTQTYICNVNHKPSNTKVDKKVEPKSCDKTHTCPPCPAPDLLGDDSVFLFPPKPKDTLMISRTPEVTCVVIDVAEEDGDVKFNWYVDGVEVHNAKTKPREEQDNSTYRVVSVLTVLHQDWLNGKEYKCKVSNKALPAPIEKTISKAKGQPREPQVYTLPPSRDELTKNQVSLTCLVKGFYPSDIAVEWESNGQPENNYKTTPPVLDSDGSFFLYSKLTVDKSRWQQGNVFSCSVMHEALHNHYTQESLSLSP light: not shown
6 | 50.6 | 1240 | IL6R-BP511/IL6R-L (antibody, human IgG1, kappa) heavy: QVQLQESGPGLVKPSETLSLTCAVSGHSISHDHAWSWVRQPPGEGLEWIGFISYSGITNYNPSLQGRVTISRDNSKNTLYLQMNSLRAEDTAVYYCARSLARTTAMDYWGEGTLVTVSSASTKGPSVFPLAPSSKSTSGGTAALGCLVKDYFPEPVTVSWNSGALTSGVHTFPAVLQSSGLYSLSSVVTVPSSSLGTQTYICNVNHKPSNTKVDKKVEPKSCDKTHTCPPCPAPELLGDDSVFLFPPKPKDTLMISRTPEVTCVVIDVAEEDGPVKFNWYVDGVEVHNAKTKPREEQDNSTYRVVSVLTVLHQDWLNGKEYKCKVSNKALPRPIEKTISKAKGQPREPQVYTLPPSRDELTKNQVSLTCLVKGFYPSDIAVEWESNGQPENNYKTTPPVLDSDGSFFLYSKLTVDKSRWQQGNVFSCSVMHEALHNHYTQESLSLSP light: not shown
7 | 22.8 | 168 | BP560 (antibody, human IgG1, kappa) heavy: QVQLQESGPGLVKPSETLSLTCAVSGHSISHDHAWSWVRQPPGEGLEWIGFISYSGITNYNPSLQGRVTISRDNSKNTLYLQMNSLRAEDTAVYYCARSLARTTAMDYWGEGTLVTVSSASTKGPSVFPLAPSSKSTSGGTAALGCLVKDYFPEPVTVSWNSGALTSGVHTFPAVLQSSGLYSLSSVVTVPSSSLGTQTYICNVNHKPSNTKVDKKVEPKSCDKTHTCPPCPAPELLGGDSVFLFPPKPKDTLMISRTPEVTCVVVDVGEEDGEVKFNWYVDGVEVHNAKTKPREEQDNSTYRVVSVLTVLHQDWLNGKEYKCKVSNKALPRPIEKTISKAKGQPREPQVYTLPPSRDELTKNQVSLTCLVKGFYPSDIAVEWESNGQPENNYKTTPPVLDSDGSFFLYSKLTVDKSRWQQGNVFSCSVMHEALHNHYTQESLSLSP light: not shown
8 | 26 | 962 | BP508 (antibody, human IgG1, kappa) heavy: QVQLQESGPGLVKPSETLSLTCAVSGHSISHDHAWSWVRQPPGEGLEWIGFISYSGITNYNPSLQGRVTISRDNSKNTLYLQMNSLRAEDTAVYYCARSLARTTAMDYWGEGTLVTVSSASTKGPSVFPLAPSSKSTSGGTAALGCLVKDYFPEPVTVSWNSGALTSGVHTFPAVLQSSGLYSLSSVVTVPSSSLGTQTYICNVNHKPSNTKVDKKVEPKSCDKTHTCPPCPAPDLLGDDSVFLFPPKPKDTLMISRTPEVTCVVIDVAEEDGPVKFNWYVDGVEVHNAKTKPREEQDNSTYRVVSVLTVLHQDWLNGKEYKCKVSNKALPAPIEKTISKAKGQPREPQVYTLPPSRDELTKNQVSLTCLVKGFYPSDIAVEWESNGQPENNYKTTPPVLDSDGSFFLYSKLTVDKSRWQQGNVFSCSVMHEALHNHYTQESLSLSP light: not shown
9 | 28.3 | 684 | IL6R-BP533/IL6R-L (antibody, human IgG1, kappa) heavy: QVQLQESGPGLVKPSETLSLTCAVSGHSISHDHAWSWVRQPPGEGLEWIGFISYSGITNYNPSLQGRVTISRDNSKNTLYLQMNSLRAEDTAVYYCARSLARTTAMDYWGEGTLVTVSSASTKGPSVFPLAPSSKSTSGGTAALGCLVKDYFPEPVTVSWNSGALTSGVHTFPAVLQSSGLYSLSSVVTVPSSSLGTQTYICNVNHKPSNTKVDKKVEPKSCDKTHTCPPCPAPDLLGDDSVFLFPPKPKDTLMISRTPEVTCVVIDVGEEDGEVKFNWYVDGVEVHNAKTKPREEQDNSTYRVVSVLTVLHQDWLNGKEYKCKVSNKALPRPIEKTISKAKGQPREPQVYTLPPSRDELTKNQVSLTCLVKGFYPSDIAVEWESNGQPENNYKTTPLVLDSDGSFFLYSKLTVDKSRWQQGNVFSCSVMHEALHNHYTQESLSLSP light: not shown
10 | 33.2 | 503 | IL6R-BP503/IL6R-L (antibody, human IgG1, kappa) heavy: QVQLQESGPGLVKPSETLSLTCAVSGHSISHDHAWSWVRQPPGEGLEWIGFISYSGITNYNPSLQGRVTISRDNSKNTLYLQMNSLRAEDTAVYYCARSLARTTAMDYWGEGTLVTVSSASTKGPSVFPLAPSSKSTSGGTAALGCLVKDYFPEPVTVSWNSGALTSGVHTFPAVLQSSGLYSLSSVVTVPSSSLGTQTYICNVNHKPSNTKVDKKVEPKSCDKTHTCPPCPAPDLLGDDSVFLFPPKPKDTLMISRTPEVTCVVIDVAEEDGEVKFNWYVDGVEVHNAKTKPREEQDNSTYRVVSVLTVLHQDWLNGKEYKCKVSNKGLPRPIEKTISKAKGQPREPQVYTLPPSRDELTKNQVSLTCLVKGFYPSDIAVEWESNGQPENNYKTTPMVLDSDGSFFLYSKLTVDKSRWQQGNVFSCSVMHEALHNHYTQESLSLSP light: not shown
11 | 28.9 | 1030 | IL6R-BP500/IL6R-L (antibody, human IgG1, kappa) heavy: QVQLQESGPGLVKPSETLSLTCAVSGHSISHDHAWSWVRQPPGEGLEWIGFISYSGITNYNPSLQGRVTISRDNSKNTLYLQMNSLRAEDTAVYYCARSLARTTAMDYWGEGTLVTVSSASTKGPSVFPLAPSSKSTSGGTAALGCLVKDYFPEPVTVSWNSGALTSGVHTFPAVLQSSGLYSLSSVVTVPSSSLGTQTYICNVNHKPSNTKVDKKVEPKSCDKTHTCPPCPAPELLGDDSVFLFPPKPKDTLMISRTPEVTCVVIDVAEEDGEVKFNWYVDGVEVHNAKTKPREEQDNSTYRVVSVLTVLHQDWLNGKEYKCKVSNKALPAPIEKTISKAKGQPREPQVYTLPPSRDELTKNQVSLTCLVKGFYPSDIAVEWESNGQPENNYKTTPPVLDSDGSFFLYSKLTVDKSRWQQGNVFSCSVMHEALHNHYTQESLSLSP light: not shown

Source: US20230140797A1 (published 2023)
